Where a chain is given by its changes, count along the chain named. Ends that are not written are not given here. * marks the point of attachment. GlcNAc2 = N-linked chitobiose, CC(=O)N[C@@H]1[C@@H](O)[C@H](O[C@@H]2O[C@H](CO)[C@@H](O)[C@H](O)[C@H]2NC(C)=O)[C@@H](CO)O[C@H]1*
How the values were obtained:
[1] = target: T1, biotinylated chitobiose-conjugated 18-mer glycopeptide (human, also: biotinylated, site not given here); test: binding affinity table of Example 3; target not named there, taken as in Table 9 (Octet BLI, biotinylated chitobiose 18-mer)
T1 construct: Cys plus T22-V38 of MUC16^c114; The range is derived from T22-V38 and the statement that c114 is 1777-1890; the N-terminal Cys is added; also called (GlcNAc2)2-18-mer, biotinylated; 18-mer(chitobiose)2[C-T22-V38]
T1 peptide: Ac-CTRN(GlcNAc2)GTQLQN(GlcNAc2)FTLDRSSV-NH2
Summary of the method: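 Binding was measured by biolayer interferometry on a ForteBio Octet QK, with 5 μg/mL biotinylated chitobiose-conjugated 18-mer glycopeptide loaded onto streptavidin biosensors. Excess antigen was washed off, and mouse antibodies were run at 10 μg/mL for association and dissociation steps. Kd, kon and koff came from a 1:1 binding site model with partial fit.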

[2] = target: T2, MUC16^c114-N1 (human, chain 1 pos 24 and pos 30: N-glycosylated Asn (cell-made glycans), written N); test: FACS, SKOV3 transfectant, goat anti-mouse IgG-PE
T2 construct: MUC16^c114 with Asn1 (Asn1777) changed to Ala, on SKOV3 cells; also called N1 mut c114; SKOV3 MUC16^c114-N1; not shown: hrGFP of the phrGFP II-C vector, fused at the cytoplasmic carboxy-terminus
T2 chain: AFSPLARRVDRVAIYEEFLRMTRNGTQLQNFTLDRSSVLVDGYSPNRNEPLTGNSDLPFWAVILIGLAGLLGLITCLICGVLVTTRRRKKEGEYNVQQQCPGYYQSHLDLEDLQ

[3] = target: T3, MUC16^c114 (human, capable of N-glycosylation at Asn1, Asn24 and Asn30 ; chain 1 pos 1, 24, 30: Asn capable of N-glycosylation on the transfected cells, written N); test: FACS, SKOV3 transfectant, goat anti-mouse IgG-PE
T3 construct: The forward primer adds Met-Val before Asn1; also called MUC16^c114-GFP; SKOV3 MUC16^c114; not shown: hrGFP of the phrGFP II-C vector fused at the cytoplasmic carboxy-terminus, with its short cloning linker
T3 chain: T2 chain with A1N

[4] = target: T4, MUC16 18mer (not fully specified); test: ELISA during fusion screen, dilution 400, column 18
T4 construct: also called non-glycosylated 18-mer MUC16 peptide
T4 peptide: CTRNGTQLQNFTLDRSSV

[5] = target: T5, (GlcNAc2)2-18-mer glycopeptide, unconjugated (human); test: ELISA during fusion screen, dilution 400, column 18S
T5 construct: Used in ELISA without KLH; also called 18-mer(chitobiose)2[C-T22-V38]; 18mer-chitobiose peptide
T5 peptide: Ac-CTRN(GlcNAc2)GTQLQN(GlcNAc2)FTLDRSSV-NH2

[6] = target: T6, MUC16 unrelated peptide 18mer; test: sandwich ELISA on 'MUC16 unrelated peptide 18mer'; Blank 0.013
T6 construct: Negative control peptide without glycan
T6 peptide: GAVPRSATINVSRIATGP

[7] = target: T7, MUC16^c114-N3 (human, chain 1 pos 1 and pos 24: N-glycosylated Asn (cell-made glycans), written N); test: FACS, SKOV3-N30 mutc114
T7 construct: MUC16^c114 with Asn30 (Asn1806) changed to Ala, on SKOV3 cells; also called N30 mut c114; SKOV3-N30 mutc114; not shown: hrGFP of the phrGFP II-C vector, fused at the cytoplasmic carboxy-terminus
T7 chain: T2 chain with A1N, N30A

[8] = target: T8, GlcNAc2-15-mer glycopeptide, unconjugated (human); test: sandwich ELISA on 'MUC16 15mer + GlcNAc2'; Blank 0.019
T8 construct: Cys plus G25-V38 of MUC16^c114; Used in ELISA without KLH; also called 15-mer(chitobiose)[C-G25-V38]; 15mer-chitobiose peptide
T8 peptide: Ac-CGTQLQN(GlcNAc2)FTLDRSSV-NH2

[9] = target: T9, MUC16 unrelated peptide 18mer+GlcNAc2 (also: GlcNAc2 (chitobiose), site not given here); test: sandwich ELISA on 'MUC16 unrelated 18mer + GlcNAc2'; Blank 0.014
T9 construct: Negative control glycopeptide; also called unrelated chitobiose-linked peptide
T9 peptide: GAVPRSATINVSRIATGP

B1: 18C6.D12 (antibody, V domains shown)
VH: QVTLKESGPGILQPSQTLSLTCSFSGFSLSTVGMGVGWSRQPSGKGLEWLAHIWWDDEDKYYNPALKSRLTISKDTSKNQVFLKIANVDTADTATYYCTRIGTAQATDALDYWGQGTSVTVSS
VL: DIVMTQAAPSVPVTPGESVSISCRSSKSLLHSNGNTYLYWFLQRPGQSPQRLIYYMSNLASGVPDRFSGRGSGTDFTLRISRVEAEDVGVYYCMQSLEYPLTFGGGTKLEIK
notes: Mouse monoclonal from a hybridoma; also called MUC16 Glycosylation Antibody 18C6
B1 was tested, and the Kd [1] was 11.1 nM, the koff [1] was 0.000678 s⁻¹ and the “Mean % PE” value [2] was 83%. The “Mean % PE” value [3] was 73.1%, the ELISA signal [4] was 0.39 and the ELISA signal [5] was 0.64. For the same binder, the ELISA signal [6] was 0.02, the geometric mean phycoerythrin (PE) fluorescence [7] was 1700 and the ELISA signal [8] was 1.44. For the same binder, the ELISA signal [9] was 0.02.

B2: 19C11.H6 (antibody, V domains shown)
VH: QVNLKESGPGKLQPSQTLSLTCSFSGFSLSTLGMGVGWIRQSSGKGLEWLAHIWWDDDKYYNPALKSRLTISRATSKNQVFLKIVNVGTADTATYYCARIGTAQATDALDYWGQGTSVTVSS
VL: B1 VL with V11I, R79K, E86G, S96G, Y99H
notes: Mouse monoclonal from a hybridoma; Used as 89Zr-DFO-labelled antibody in the internalization assay; also called MUC16 Glycosylation Antibody 19C11
With B2 the Kd [1] was 63.7 nM, the koff [1] was 0.00242 s⁻¹ and the kon [1] was 38000 M⁻¹ s⁻¹. For the same binder, the “Mean % PE” value [2] was 81.7%, the “Mean % PE” value [3] was 69.3% and the ELISA signal [4] was 0.38. The ELISA signal [5] was 0.47, the ELISA signal [6] was 0.03 and the geometric mean phycoerythrin (PE) fluorescence [7] was 536. For the same binder, the ELISA signal [8] was 1.51 and the ELISA signal [9] was 0.03.

B3: 7B12.B3 (antibody, V domains shown)
VH: B1 VH with T93S
VL: B1 VL with P12S, L30R, H31K, E110K
notes: Mouse monoclonal from a hybridoma; also called MUC16 Glycosylation Antibody 7B12
B3 gave a Kd [1] of 13.8 nM, a koff [1] of 0.00104 s⁻¹ and an ELISA signal [4] of 0.53. For the same binder, the ELISA signal [5] was 0.92, the ELISA signal [6] was 0.04 and the ELISA signal [8] was 1.32. The ELISA signal [9] was 0.03.

Reference: US20180112008A1 (Memorial Sloan Kettering, published 2018)
